Reference: patent US20140303084
Substitutions are numbered along the chain they refer to.

Key:
[1] = system: T1, RRAPGKLT-Lys-LASY-Asp-WLFWTGIA-COOH
T1 sequence: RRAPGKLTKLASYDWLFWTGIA

[2] = system: T2, SKQGRPISSDrRAAGKLTCLASYCWLFWTGIA
T2 sequence: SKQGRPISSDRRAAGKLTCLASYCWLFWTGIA

[3] = system: T3, PRIRTVGPGSRSASGKLTCLASYCWLFFTGIA
T3 sequence: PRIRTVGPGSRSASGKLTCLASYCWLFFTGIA

[4] = system: T4, KATCLASYCWLF
T4 sequence: KATCLASYCWLF

[5] = system: T5, RRAPGKLTCLASYCWLF WTTYA SYATKPADTT
T5 sequence: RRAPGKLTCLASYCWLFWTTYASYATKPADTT

[6] = system: T6, RRAPGKLTCLASYCWLF WTGYA SGKPSRVYVI
T6 sequence: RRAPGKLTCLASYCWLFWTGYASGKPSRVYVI

[7] = system: T7, KLTCLASYCWLF-COOH
T7 sequence: KLTCLASYCWLF

[8] = system: T8, AVDSLPLYGA RSAPS KLTCLASYCWLFWTGIA
T8 sequence: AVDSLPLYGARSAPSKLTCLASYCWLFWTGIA

[9] = system: T9, RRAPGKLCALASYCWLFWTGIA-COOH
T9 sequence: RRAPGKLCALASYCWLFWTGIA

[10] = system: T10, AQWVGRGQWA IRAPG KLTCLASYCWLFWTGIA
T10 sequence: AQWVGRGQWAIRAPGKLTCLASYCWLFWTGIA

[11] = system: T11, Dpr-LTCLASYCWLF
T11 sequence: XLTCLASYCWLF

[12] = system: T12, compound 23
T12 sequence: T3 sequence with F28W

[13] = system: T13, RRFVGGSLSQ RRAPG KLTCLASYCWLFWTGIA
T13 sequence: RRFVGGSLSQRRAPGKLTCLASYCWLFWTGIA

[14] = system: T14, SRIRTVGPGSRSASGKSTCLASYCWLFWTGIA
T14 sequence: T3 sequence with P1S, L17S, F28W

[15] = system: T15, R-MeArg-APGKLTCLASYCWLFWTGIA
T15 sequence: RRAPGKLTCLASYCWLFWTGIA

[16] = system: T16, RRAPGKLTCLASYCwLFWTGIA
T16 sequence: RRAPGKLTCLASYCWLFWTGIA

[17] = system: T17, RAPGKLQCLASYCWLFWTGIA
T17 sequence: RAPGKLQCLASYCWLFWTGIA

[18] = system: T18, SRSRTVSPGSRSASGKSTCLASYCWLFWTGIA
T18 sequence: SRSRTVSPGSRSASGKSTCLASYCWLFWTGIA

## human Factor IXa
[1]
  Vmax, FXa generation assay: > 0.5
[2]
  Vmax, FXa generation assay: > 3
[3]
  Vmax, FXa generation assay: > 3
[4]
  Vmax, FXa generation assay: > 2
[5]
  Vmax, FXa generation assay: > 2
[6]
  Vmax, FXa generation assay: > 3
[7]
  Vmax, FXa generation assay; (++) means 1-2: (++)
[8]
  Vmax, FXa generation assay; (++) means 1-2: (++)
[9]
  Vmax, FXa generation assay: > 2
[10]
  Vmax, FXa generation assay: > 2
[11]
  Vmax, FXa generation assay: > 2
[12]
  Vmax, FXa generation assay with hFIXa: > 3
[13]
  Vmax, FXa generation assay: > 3
[14]
  Vmax, FXa generation assay: > 3
[15]
  Vmax, FXa generation assay; (++) means 1-2: (++)
[16]
  Vmax, FXa generation assay: > 2
[17]
  Vmax, FXa generation assay; (++) means 1-2: (++)
[18]
  Vmax, FXa generation assay: > 3
